From the Human Domainome abundance scans (Beltran et al. 2025)
± gives the uncertainty stated by the source.

B1: Formin-binding protein 4, residues 593 to 636; numbered along this chain, Q8N3X1 (parent)
chain: EINATPKGWSCHWDRDHRRYFYVNEQSGESQWEFPDGEEEEEES

Variants of: B1
Assay: abundance fitness (aPCA) (normalised: wild type 0, dead -1); higher = more abundant; growth selection in yeast, the domain comes from the species named
Settings: Homo sapiens
Work on EINATPKGWSCHGDRDHRRYFYVNEQSGESQWEFPDGEEEEEES [W13G] yielded an abundance fitness of -0.544 ± 0.067.
In the case of EINATPKGWSCHWDRDHRRYFYVNEQSGESQWEHPDGEEEEEES [F34H], the abundance fitness is reported as -0.011 ± 0.11.
In the case of EICATPKGWSCHWDRDHRRYFYVNEQSGESQWEFPDGEEEEEES [N3C], the abundance fitness is reported as -0.304 ± 0.2.
EINATPKGWSCHWDRDHRRYFYVNEQSGESQWEFTDGEEEEEES [P35T] showed an abundance fitness of -0.753 ± 0.099.
EINATPKGWSCHWDRDHRRYFYVNEQSRESQWEFPDGEEEEEES [G28R] showed an abundance fitness of -0.438 ± 0.079.
In the case of EINATPKGWSCHWDRDHRRYFYVNEQSGLSQWEFPDGEEEEEES [E29L], the abundance fitness is reported as -0.129 ± 0.094.
EINATPKGWSCHWDRDHRRYFYVNEQSGASQWEFPDGEEEEEES [E29A] showed an abundance fitness of -0.052 ± 0.081.
With EINATPKGWSCHWDRDHRRYFYVNEQSGGSQWEFPDGEEEEEES [E29G] the abundance fitness was -0.253 ± 0.07.
EINATPKGWSCHWDRDHRRYFYVNEQSGESQWEFPAGEEEEEES [D36A] gave an abundance fitness of -0.04 ± 0.067.
Work on EINATPKGWSCHWDRDHRRYFYVNEQSGESQWEFPNGEEEEEES [D36N] yielded an abundance fitness of -0.273 ± 0.16.
For EINATPKGWSCHWDRDHRRYFYVNEQSGESQWEFPQGEEEEEES [D36Q], the abundance fitness was -0.063 ± 0.072.
With EINATPKGWSCHWDRDHRRYFYVNEQSGESQWEFPDGEEEEEGS [E43G] the abundance fitness was 0.021 ± 0.082.
With EINATPKGWSCHWDRDHRRYFYVNEQSGESQWEFPDGEEEEEFS [E43F] the abundance fitness was 0.248 ± 0.3.
In the case of EINATPKGWSCRWDRDHRRYFYVNEQSGESQWEFPDGEEEEEES [H12R], the abundance fitness is reported as -0.17 ± 0.07.
EINATPKGWSCVWDRDHRRYFYVNEQSGESQWEFPDGEEEEEES [H12V] gave an abundance fitness of -0.21 ± 0.074.
In the case of EINATPKGWSCMWDRDHRRYFYVNEQSGESQWEFPDGEEEEEES [H12M], the abundance fitness is reported as -0.498 ± 0.13.
For EINATPKGWSCQWDRDHRRYFYVNEQSGESQWEFPDGEEEEEES [H12Q], the abundance fitness was -0.432 ± 0.2.
In the case of EINATPKGWSCSWDRDHRRYFYVNEQSGESQWEFPDGEEEEEES [H12S], the abundance fitness is reported as -0.453 ± 0.1.
In the case of EINATPKGWSCHWDRDHRRYFYVMEQSGESQWEFPDGEEEEEES [N24M], the abundance fitness is reported as -0.984 ± 0.099.
In the case of EINATPKGWSCHWDRDHRRYFYVNDQSGESQWEFPDGEEEEEES [E25D], the abundance fitness is reported as 0.144 ± 0.13.
Work on EINATPKGWSCHWDRDHRRYFYVNWQSGESQWEFPDGEEEEEES [E25W] yielded an abundance fitness of -0.648 ± 0.095.
Variant EINAMPKGWSCHWDRDHRRYFYVNEQSGESQWEFPDGEEEEEES [T5M] has an abundance fitness of -0.054 ± 0.15.
EINALPKGWSCHWDRDHRRYFYVNEQSGESQWEFPDGEEEEEES [T5L] gave an abundance fitness of 0.213 ± 0.084.
In the case of EINASPKGWSCHWDRDHRRYFYVNEQSGESQWEFPDGEEEEEES [T5S], the abundance fitness is reported as -0.81 ± 0.33.
Variant EINATPKGWSCHWDRDHRRYFYVNEQSGESRWEFPDGEEEEEES [Q31R] has an abundance fitness of -0.075 ± 0.059.
EINATPKGWSCHWDRDHRRYFYVNEQSGESLWEFPDGEEEEEES [Q31L] showed an abundance fitness of -0.383 ± 0.07.
In the case of EINATPKGWSCHWDADHRRYFYVNEQSGESQWEFPDGEEEEEES [R15A], the abundance fitness is reported as -0.059 ± 0.073.
EINATPKGWSCHWSRDHRRYFYVNEQSGESQWEFPDGEEEEEES [D14S] showed an abundance fitness of -0.141 ± 0.077.
For EINATPKGWSCHWHRDHRRYFYVNEQSGESQWEFPDGEEEEEES [D14H], the abundance fitness was -0.289 ± 0.13.
Variant EINATPKGWSCHWDRDHRRYFYVNEQSGEHQWEFPDGEEEEEES [S30H] has an abundance fitness of -0.354 ± 0.17.
For EINATPKGWSCHWDRDHRRYFYVNEQSGEVQWEFPDGEEEEEES [S30V], the abundance fitness was 0.094 ± 0.072.
EINATPKGWSCHWDRDHRRYFYVNEQSGESQWEFPDGEEEEEER [S44R] gave an abundance fitness of 0.025 ± 0.3.
Work on EINATPKGWSCHWDRDHRRYFYVNEQSGESQFEFPDGEEEEEES [W32F] yielded an abundance fitness of 0.047 ± 0.15.
Variant EINATPKGWSCHWDRDHRVYFYVNEQSGESQWEFPDGEEEEEES [R19V] has an abundance fitness of -0.491 ± 0.077.
In the case of EINATPKGWSCHWDRDHRSYFYVNEQSGESQWEFPDGEEEEEES [R19S], the abundance fitness is reported as -0.391 ± 0.14.
With EINTTPKGWSCHWDRDHRRYFYVNEQSGESQWEFPDGEEEEEES [A4T] the abundance fitness was -0.032 ± 0.16.
With EINATPKGWSCHWDRDHRRYFYVNEQSGESQWEFPDGEEEERES [E42R] the abundance fitness was 0.01 ± 0.057.
For EINATPKGWSCHWDRDHRRYMYVNEQSGESQWEFPDGEEEEEES [F21M], the abundance fitness was -0.048 ± 0.16.
Work on WINATPKGWSCHWDRDHRRYFYVNEQSGESQWEFPDGEEEEEES [E1W] yielded an abundance fitness of -0.061 ± 0.41.
For GINATPKGWSCHWDRDHRRYFYVNEQSGESQWEFPDGEEEEEES [E1G], the abundance fitness was -0.433 ± 0.11.
Work on EINATPKGWSCHWDRDHRRWFYVNEQSGESQWEFPDGEEEEEES [Y20W] yielded an abundance fitness of 0.072 ± 0.07.
Work on EINATPKGWSCHWDRDHRRKFYVNEQSGESQWEFPDGEEEEEES [Y20K] yielded an abundance fitness of -0.319 ± 0.28.
In the case of EINATPKGWSCHWDRDHRRYFYVNEQSGESQWEFPDGEEENEES [E41N], the abundance fitness is reported as -0.109 ± 0.083.
Variant EINATPKGWSCHWDRDHRRYFYVNEQSGESQWEFPDGEEEMEES [E41M] has an abundance fitness of -0.064 ± 0.11.
Variant EINATPKGWSCHWDRDHRRYFYVNEQSGESQWEFPDPEEEEEES [G37P] has an abundance fitness of -0.034 ± 0.097.
In the case of EINATPKGWSCHWDRDHRRYFYVNEQSGESQWEFPDDEEEEEES [G37D], the abundance fitness is reported as -0.266 ± 0.18.
EINATPKCWSCHWDRDHRRYFYVNEQSGESQWEFPDGEEEEEES [G8C] showed an abundance fitness of -0.471 ± 0.16.
Variant EINATPKEWSCHWDRDHRRYFYVNEQSGESQWEFPDGEEEEEES [G8E] has an abundance fitness of -0.438 ± 0.18.
EINATPKTWSCHWDRDHRRYFYVNEQSGESQWEFPDGEEEEEES [G8T] showed an abundance fitness of -0.843 ± 0.27.
Variant EINATPTGWSCHWDRDHRRYFYVNEQSGESQWEFPDGEEEEEES [K7T] has an abundance fitness of -0.456 ± 0.27.
EINATPRGWSCHWDRDHRRYFYVNEQSGESQWEFPDGEEEEEES [K7R] showed an abundance fitness of -0.074 ± 0.1.
Variant EINATPSGWSCHWDRDHRRYFYVNEQSGESQWEFPDGEEEEEES [K7S] has an abundance fitness of -0.214 ± 0.14.
Variant EINATPKGWSVHWDRDHRRYFYVNEQSGESQWEFPDGEEEEEES [C11V] has an abundance fitness of -0.257 ± 0.2.
EINATPKGWGCHWDRDHRRYFYVNEQSGESQWEFPDGEEEEEES [S10G] gave an abundance fitness of -0.528 ± 0.095.
With EINATPKGWKCHWDRDHRRYFYVNEQSGESQWEFPDGEEEEEES [S10K] the abundance fitness was -0.212 ± 0.15.
Work on EINATPKGDSCHWDRDHRRYFYVNEQSGESQWEFPDGEEEEEES [W9D] yielded an abundance fitness of -0.742 ± 0.18.
Variant EINATPKGKSCHWDRDHRRYFYVNEQSGESQWEFPDGEEEEEES [W9K] has an abundance fitness of -0.619 ± 0.2.
EINATPKGWSCHWDRKHRRYFYVNEQSGESQWEFPDGEEEEEES [D16K] gave an abundance fitness of -0.169 ± 0.084.
